Assay [1] concerns the target T1, human FcγRIa (human, UniProt P12314 16-292, limits assumed).
T1 construct: also called FcyRIa; CD64
As to the kind of experiment: SPR (Biacore), FcγR over captured antibody; binding amount relative to IL6R-BF648/IL6R-L x100. In general terms: In SPR one partner is held on a chip, and binding of the other changes the refractive index at the surface.
T1 sequence (P12314 16-292 limits assumed): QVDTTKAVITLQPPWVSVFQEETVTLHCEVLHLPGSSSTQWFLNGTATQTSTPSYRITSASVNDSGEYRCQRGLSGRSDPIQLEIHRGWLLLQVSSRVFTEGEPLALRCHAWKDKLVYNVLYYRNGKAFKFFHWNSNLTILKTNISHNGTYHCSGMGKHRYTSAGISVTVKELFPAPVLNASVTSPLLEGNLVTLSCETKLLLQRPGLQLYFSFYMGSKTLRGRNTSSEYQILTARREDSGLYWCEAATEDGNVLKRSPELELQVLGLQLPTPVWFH

For another assay, the target named is T2, human FcγRIIa type H (human, UniProt P12318 36-217).
T2 construct: also called FcyRIIaH; FcγRIIa(H)
T2 sequence: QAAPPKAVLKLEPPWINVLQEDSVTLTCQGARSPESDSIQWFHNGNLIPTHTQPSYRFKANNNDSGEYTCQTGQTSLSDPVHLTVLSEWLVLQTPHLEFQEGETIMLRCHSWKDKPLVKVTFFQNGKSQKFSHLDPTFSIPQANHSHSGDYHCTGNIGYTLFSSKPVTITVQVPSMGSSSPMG
The description is as above.

In assay [2] the target is T3, human FcγRIIb (human, UniProt P31994 43-217, limits assumed).
T3 construct: also called FcyRIfb; FcγIIB
T3 sequence: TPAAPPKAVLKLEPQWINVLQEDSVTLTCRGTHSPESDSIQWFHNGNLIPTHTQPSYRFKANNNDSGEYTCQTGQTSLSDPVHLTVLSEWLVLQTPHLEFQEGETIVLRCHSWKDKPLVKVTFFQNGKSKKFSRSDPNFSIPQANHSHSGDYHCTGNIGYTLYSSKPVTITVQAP
Described as above.

A further assay has as its target T4, human FcγRIIIa type V (human, UniProt P08637 17-208, limits assumed).
T4 construct: also called FcyRIIIa; FcγRIIIaV
Described as above.

Assay [3] addresses T5, human FcγRIa (human, UniProt P12314 16-292, limits assumed).
T5 construct: Soluble analyte in SPR; also called hFcgRIa; FcgRIa
The assay is described as follows: SPR (Biacore), antibody captured, FcγR analyte, 25 C; normalised to captured antibody, GpH7-B3/GpL16-k0 = 100.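 Note: antibodies held on sensor chips through immobilized antigen peptide, Protein A, Protein A/G or Protein L, with HBS-EP+ running buffer and FcγR in solution.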
T5 sequence (P12314 16-292 limits assumed): as the sequence (P12314 16-292 limits assumed) above
Experimental: (§1) Interaction between each modified antibody and Fcγ receptor prepared in the manner described above was analyzed using the BIACORE™ T100 surface plasmon resonance system (GE Healthcare), BIACORE™ T200 surface plasmon resonance system (GE Healthcare), BIACORE™ A100 surface plasmon resonance system or BIACORE™ 4000 surface plasmon resonance system. HBS-EP+(GE Healthcare) was used for the running buffer, and measurements were carried out at 25° C. The chips used were chips in which antigen peptides, Protein A (Thermo Scientific), Protein A/G (Thermo Scientific) or Protein L (ACTIGEN® protein (Alltech or BioVision) were immobilized on the Series S Sensor Chip CM5 (GE Healthcare) or Series S Sensor Chip CM4 (GE Healthcare) by amine coupling, or chips in which preliminarily biotinylated antigen peptides were allowed to interact and then immobilized on the Series S Sensor Chip SA (certified) (GE Healthcare). The target antibodies were captured on these sensor chips, Fcγ receptor diluted with the running buffer was allowed to interact, followed by measurement of the amount of bound antibody. The amounts bound were compared between antibodies. However, since the amount of Fcγ receptor bound depends on the amount of captured antibody, the values used for comparison were first corrected by dividing the amount of Fcγ receptor bound by the captured amount of each antibody. Through reaction with 10 mM glycine-HCl at pH 1.5, the sensor chips were regenerated by washing off antibody captured on the sensor chips and used repeatedly.
(§2) Binding strength was evaluated according to the following method based on the results of analyzing the interaction with each FcγR. […] That value was then further multiplied by 100, and the resulting value was used as an indicator of relative binding activity to each FcγR.

The target in assay [4] is T6, human FcγRIIa(R) (allotype R131) (human, UniProt P12318 36-217).
T6 construct: Soluble analyte in SPR; also called hFcgRIIa(R); FcgRIIaR
T6 chain: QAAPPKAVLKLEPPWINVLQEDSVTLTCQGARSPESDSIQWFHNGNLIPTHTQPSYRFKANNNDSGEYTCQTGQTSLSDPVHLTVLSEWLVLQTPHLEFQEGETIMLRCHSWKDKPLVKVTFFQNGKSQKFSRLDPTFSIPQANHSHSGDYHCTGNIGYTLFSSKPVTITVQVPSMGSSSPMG
Described as above.
Experimental: as §1, §2

The target in assay [5] is T7, human FcγRIIa(H) (allotype H131) (human, UniProt P12318 36-217).
T7 construct: Soluble analyte in SPR; also called hFcgRIIa(H); FcgRIIaH
T7 sequence: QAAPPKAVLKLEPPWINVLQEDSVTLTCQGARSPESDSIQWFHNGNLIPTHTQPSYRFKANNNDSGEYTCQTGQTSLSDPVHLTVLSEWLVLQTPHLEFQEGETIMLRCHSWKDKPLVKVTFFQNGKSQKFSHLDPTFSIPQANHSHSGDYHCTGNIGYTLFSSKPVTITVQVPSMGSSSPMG
The assay is described as above.
Experimental: as §1, §2

Assay [6] addresses T8, human FcγRIIb (human, UniProt P31994 43-217, limits assumed).
T8 construct: Soluble analyte in SPR; also called hFcgRIIb; FcgRIIb
T8 sequence: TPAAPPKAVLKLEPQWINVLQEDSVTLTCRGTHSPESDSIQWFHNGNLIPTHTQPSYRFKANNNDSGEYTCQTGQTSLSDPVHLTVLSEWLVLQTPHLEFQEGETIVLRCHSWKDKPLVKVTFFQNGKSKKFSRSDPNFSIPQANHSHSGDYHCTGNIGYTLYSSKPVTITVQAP
The description is as above.
Experimental: as §1, §2

Assay [7] concerns the target T9, human FcγRIIIa(F) (allotype F158) (human, UniProt P08637 17-208, limits assumed).
T9 construct: also called hFcgRIIIa(F); FcgRIIIaF
Described as above.
Experimental: as §1, §2

T9 sequence (P08637 other isoform, or with tags, fused parts or gaps limits assumed): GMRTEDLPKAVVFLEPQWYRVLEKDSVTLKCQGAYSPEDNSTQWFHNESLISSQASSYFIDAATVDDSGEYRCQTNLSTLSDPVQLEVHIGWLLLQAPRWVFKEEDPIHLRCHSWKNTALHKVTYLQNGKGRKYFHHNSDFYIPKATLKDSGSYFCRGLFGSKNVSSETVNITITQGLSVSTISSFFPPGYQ

B1: IL6R-BP911/IL6R-L (antibody, human IgG1, name in EU numbering)
heavy: QVQLQESGPGLVKPSETLSLTCAVSGHSISHDHAWSWVRQPPGEGLEWIGFISYSGITNYNPSLQGRVTISRDNSKNTLYLQMNSLRAEDTAVYYCARSLARTTAMDYWGEGTLVTVSSASTKGPSVFPLAPSSKSTSGGTAALGCLVKDYFPEPVTVSWNSGALTSGVHTFPAVLQSSGLYSLSSVVTVPSSSLGTQTYICNVNHKPSNTKVDKKVEPKSCDKTHTCPPCPAPELLGGDSVFLFPPKPKDTLMISRTPEVTCVVVDVSHEDPEVKFNWYVDGVEVHNAKTKPREEQYNSTYRVVSVLTVLHQDWLNGKEYKCKVSNKALPKPIEKTISKAKGQPREPQVYTLPPSRDELTKNQVSLTCLVKGFYPSDIAVEWESNGQPENNYKTTPPVLDSDGSFFLYSKLTVDKSRWQQGNVFSCSVMHEALHNHYTQESLSLSP
light: DIQMTQSPSSLSASVGDRVTITCRASQDISSYLNWYQQKPGKAPKLLIYYTSRLHSGVPSRFSGSGSGTDFTFTISSLQPEDIATYYCQQGNTLPYTFGQGTKVEIK
B1: the relative binding was 52 % of IL6R-BF648/IL6R-L with human FcγRIa [1], 108 % of IL6R-BF648/IL6R-L in the assay with human FcγRIIa type H, 119 % of IL6R-BF648/IL6R-L with human FcγRIIb [2] and 120 % of IL6R-BF648/IL6R-L with human FcγRIIIa type V.

B2: IL6R-G1d/IL6R-L (antibody, human IgG1)
heavy: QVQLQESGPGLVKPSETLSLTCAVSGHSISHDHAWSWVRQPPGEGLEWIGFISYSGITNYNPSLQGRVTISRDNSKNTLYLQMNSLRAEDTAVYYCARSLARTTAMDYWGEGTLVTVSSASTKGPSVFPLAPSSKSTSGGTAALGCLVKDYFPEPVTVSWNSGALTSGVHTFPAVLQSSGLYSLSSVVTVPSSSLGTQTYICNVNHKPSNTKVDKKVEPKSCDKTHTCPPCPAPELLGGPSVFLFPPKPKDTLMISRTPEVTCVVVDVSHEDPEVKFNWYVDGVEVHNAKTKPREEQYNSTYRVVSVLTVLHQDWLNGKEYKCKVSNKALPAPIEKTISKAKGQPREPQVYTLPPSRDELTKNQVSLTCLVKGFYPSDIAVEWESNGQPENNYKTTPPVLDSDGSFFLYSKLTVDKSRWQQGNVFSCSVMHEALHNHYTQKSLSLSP
light: DIQMTQSPSSLSASVGDRVTITCRASQDISSYLNWYQQKPGKAPKLLIYYTSRLHSGVPSRFSGSGSGTDFTFTISSLQPEDIATYYCQQGNTLPYTFGQGTKVEIK
notes: Anti-human IL-6 receptor IgG1 with the G1d constant region (C-terminal Gly and Lys removed); also called IgG1
For B2, the relative binding with human FcγRIa [1] is 140 % of IL6R-BF648/IL6R-L; in the assay with human FcγRIIa type H it was 1670 % of IL6R-BF648/IL6R-L; with human FcγRIIb [2] it was 62 % of IL6R-BF648/IL6R-L; with human FcγRIIIa type V, 3350 % of IL6R-BF648/IL6R-L.

B3: GpH7-B3 variant P329H / GpL16-k0 (antibody, human IgG1)
heavy: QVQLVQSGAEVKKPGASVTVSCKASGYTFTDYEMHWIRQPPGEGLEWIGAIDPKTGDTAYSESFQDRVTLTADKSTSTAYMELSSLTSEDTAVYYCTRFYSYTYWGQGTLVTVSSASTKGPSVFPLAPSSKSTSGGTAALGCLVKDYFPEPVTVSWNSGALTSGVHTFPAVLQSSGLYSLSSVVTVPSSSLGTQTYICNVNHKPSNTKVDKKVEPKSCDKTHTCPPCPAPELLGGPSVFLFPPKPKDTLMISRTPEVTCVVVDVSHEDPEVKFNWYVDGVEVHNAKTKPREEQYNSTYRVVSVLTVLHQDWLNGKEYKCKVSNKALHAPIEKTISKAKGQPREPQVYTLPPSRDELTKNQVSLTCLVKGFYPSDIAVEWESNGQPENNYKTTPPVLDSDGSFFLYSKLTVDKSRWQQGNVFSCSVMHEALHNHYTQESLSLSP
light: DIVMTQSPLSLPVTPGEPASISCQASESLVHSNRNTYLHWYLQKPGQSPQLLIYKVSNRFSGVPDRFSGSGSGTDFTLKISRVEAEDVGVYYCSQNTHVPPTFGQGTKVEIE
notes: Anti-glypican-3 human IgG1 with B3 constant region (G1d with K439E); position by EU numbering
Consider B3, for which the “relative binding activity (parent antibody = 100)” value (“relative binding activity” below) is 50 % of control with human FcγRIa [3]; -1 % of control in assay [4]; 0 % of control in assay [5]; -3 % of control with human FcγRIIb [6]; -1 % of control in assay [7].

B4: GpH7-B3 variant I332P / GpL16-k0 (antibody, human IgG1)
heavy: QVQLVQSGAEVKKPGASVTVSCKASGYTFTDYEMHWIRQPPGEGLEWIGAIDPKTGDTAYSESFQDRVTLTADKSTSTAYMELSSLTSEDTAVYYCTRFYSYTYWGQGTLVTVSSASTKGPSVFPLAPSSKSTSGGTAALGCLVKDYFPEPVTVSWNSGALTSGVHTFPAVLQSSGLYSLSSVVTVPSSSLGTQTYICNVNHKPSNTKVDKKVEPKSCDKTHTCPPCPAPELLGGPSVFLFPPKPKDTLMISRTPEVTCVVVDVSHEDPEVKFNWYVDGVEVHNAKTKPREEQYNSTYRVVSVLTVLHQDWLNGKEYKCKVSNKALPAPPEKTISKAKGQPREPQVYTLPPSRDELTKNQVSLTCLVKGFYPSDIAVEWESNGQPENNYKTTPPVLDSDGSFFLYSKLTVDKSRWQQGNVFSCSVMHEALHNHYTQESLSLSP
light: DIVMTQSPLSLPVTPGEPASISCQASESLVHSNRNTYLHWYLQKPGQSPQLLIYKVSNRFSGVPDRFSGSGSGTDFTLKISRVEAEDVGVYYCSQNTHVPPTFGQGTKVEIE
notes: Anti-glypican-3 human IgG1 with B3 constant region; position by EU numbering
As to B4, the “relative binding activity” value in the assay with human FcγRIa [3] was 100 % of control; in assay [4], 34 % of control; in [5] it was 26 % of control; with human FcγRIIb [6], 41 % of control; in assay [7] it was 14 % of control.

B5: GpH7-B3 variant P331G / GpL16-k0 (antibody, human IgG1)
heavy: not shown
light: DIVMTQSPLSLPVTPGEPASISCQASESLVHSNRNTYLHWYLQKPGQSPQLLIYKVSNRFSGVPDRFSGSGSGTDFTLKISRVEAEDVGVYYCSQNTHVPPTFGQGTKVEIE
notes: as for B4
As for B5, the “relative binding activity” value with human FcγRIa [3] is 88 % of control; in [4], 13 % of control.

B6: GpH7-B3 variant P329G / GpL16-k0 (antibody, human IgG1)
heavy: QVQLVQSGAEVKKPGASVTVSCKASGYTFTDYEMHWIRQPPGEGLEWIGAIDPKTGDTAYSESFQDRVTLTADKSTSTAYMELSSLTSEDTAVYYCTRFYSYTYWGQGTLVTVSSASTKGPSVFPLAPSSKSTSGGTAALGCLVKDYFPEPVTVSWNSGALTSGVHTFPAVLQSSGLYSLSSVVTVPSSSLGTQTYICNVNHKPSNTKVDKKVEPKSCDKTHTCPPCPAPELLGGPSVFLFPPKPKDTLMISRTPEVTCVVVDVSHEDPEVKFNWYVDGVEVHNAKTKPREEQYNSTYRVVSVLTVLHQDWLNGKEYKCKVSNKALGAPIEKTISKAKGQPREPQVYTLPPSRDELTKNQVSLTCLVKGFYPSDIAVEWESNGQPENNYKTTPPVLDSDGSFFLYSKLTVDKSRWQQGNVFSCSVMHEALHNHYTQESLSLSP
light: DIVMTQSPLSLPVTPGEPASISCQASESLVHSNRNTYLHWYLQKPGQSPQLLIYKVSNRFSGVPDRFSGSGSGTDFTLKISRVEAEDVGVYYCSQNTHVPPTFGQGTKVEIE
notes: as for B4
Regarding B6, the “relative binding activity” value with human FcγRIa [3] is 92 % of control; in assay [5], 1 % of control; with human FcγRIIb [6], 0 % of control; in assay [7], 4 % of control.

B7: GpH7-B3 variant I332K / GpL16-k0 (antibody, human IgG1)
heavy: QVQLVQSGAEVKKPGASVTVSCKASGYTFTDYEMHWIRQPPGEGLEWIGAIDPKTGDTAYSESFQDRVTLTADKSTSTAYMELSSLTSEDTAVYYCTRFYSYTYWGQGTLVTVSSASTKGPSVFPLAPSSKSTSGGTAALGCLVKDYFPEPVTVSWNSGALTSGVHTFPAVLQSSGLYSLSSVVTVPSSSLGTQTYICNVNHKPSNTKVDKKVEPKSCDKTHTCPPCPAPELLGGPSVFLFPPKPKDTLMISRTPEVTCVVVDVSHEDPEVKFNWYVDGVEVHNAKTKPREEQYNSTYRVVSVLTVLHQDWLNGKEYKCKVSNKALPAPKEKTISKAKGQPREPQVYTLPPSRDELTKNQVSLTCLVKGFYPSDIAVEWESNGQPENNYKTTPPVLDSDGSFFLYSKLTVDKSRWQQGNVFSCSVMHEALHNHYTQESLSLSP
light: DIVMTQSPLSLPVTPGEPASISCQASESLVHSNRNTYLHWYLQKPGQSPQLLIYKVSNRFSGVPDRFSGSGSGTDFTLKISRVEAEDVGVYYCSQNTHVPPTFGQGTKVEIE
notes: as for B4
In the case of B7, the “relative binding activity” value is 77 % of control with human FcγRIa [3], 12 % of control in assay [4], 59 % of control in assay [5] and 27 % of control in the assay with human FcγRIIb [6].

B8: GpH7-B3 variant P329N / GpL16-k0 (antibody, human IgG1)
heavy: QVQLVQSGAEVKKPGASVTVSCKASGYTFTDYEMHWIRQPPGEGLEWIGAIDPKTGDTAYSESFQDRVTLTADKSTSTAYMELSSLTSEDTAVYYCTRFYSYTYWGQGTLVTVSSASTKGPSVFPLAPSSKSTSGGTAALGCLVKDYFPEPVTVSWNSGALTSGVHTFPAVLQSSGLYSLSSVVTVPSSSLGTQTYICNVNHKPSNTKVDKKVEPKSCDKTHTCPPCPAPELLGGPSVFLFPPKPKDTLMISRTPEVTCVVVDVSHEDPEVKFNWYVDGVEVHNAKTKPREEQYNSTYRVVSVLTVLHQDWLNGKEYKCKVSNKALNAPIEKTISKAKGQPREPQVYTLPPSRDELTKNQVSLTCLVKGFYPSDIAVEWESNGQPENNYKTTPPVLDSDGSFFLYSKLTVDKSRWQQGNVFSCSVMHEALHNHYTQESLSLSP
light: DIVMTQSPLSLPVTPGEPASISCQASESLVHSNRNTYLHWYLQKPGQSPQLLIYKVSNRFSGVPDRFSGSGSGTDFTLKISRVEAEDVGVYYCSQNTHVPPTFGQGTKVEIE
notes: as for B4
Turning to B8, the “relative binding activity” value was 45 % of control with human FcγRIa [3]; 4 % of control in assay [4]; 5 % of control in assay [5]; 0 % of control with human FcγRIIb [6]; 3 % of control in assay [7].

B9: GpH7-B3 variant A330S / GpL16-k0 (antibody, human IgG1)
heavy: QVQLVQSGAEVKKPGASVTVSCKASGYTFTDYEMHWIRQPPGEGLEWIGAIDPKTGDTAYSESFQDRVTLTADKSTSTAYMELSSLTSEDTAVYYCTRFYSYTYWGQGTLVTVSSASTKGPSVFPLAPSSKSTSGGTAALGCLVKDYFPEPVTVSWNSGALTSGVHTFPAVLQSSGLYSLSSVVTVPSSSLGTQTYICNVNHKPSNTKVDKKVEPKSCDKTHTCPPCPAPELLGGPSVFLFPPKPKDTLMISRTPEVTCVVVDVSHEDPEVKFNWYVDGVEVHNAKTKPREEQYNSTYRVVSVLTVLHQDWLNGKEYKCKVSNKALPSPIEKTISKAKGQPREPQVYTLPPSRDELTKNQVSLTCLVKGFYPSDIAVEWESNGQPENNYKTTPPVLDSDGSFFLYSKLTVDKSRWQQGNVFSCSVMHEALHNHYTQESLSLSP
light: DIVMTQSPLSLPVTPGEPASISCQASESLVHSNRNTYLHWYLQKPGQSPQLLIYKVSNRFSGVPDRFSGSGSGTDFTLKISRVEAEDVGVYYCSQNTHVPPTFGQGTKVEIE
notes: as for B4
On to B9, for which the “relative binding activity” value with human FcγRIa [3] is 58 % of control; in assay [4], 0 % of control; in [5], 0 % of control; in the assay with human FcγRIIb [6], -3 % of control; in assay [7], 0 % of control.

B10: GpH7-B3 variant P329E / GpL16-k0 (antibody, human IgG1)
heavy: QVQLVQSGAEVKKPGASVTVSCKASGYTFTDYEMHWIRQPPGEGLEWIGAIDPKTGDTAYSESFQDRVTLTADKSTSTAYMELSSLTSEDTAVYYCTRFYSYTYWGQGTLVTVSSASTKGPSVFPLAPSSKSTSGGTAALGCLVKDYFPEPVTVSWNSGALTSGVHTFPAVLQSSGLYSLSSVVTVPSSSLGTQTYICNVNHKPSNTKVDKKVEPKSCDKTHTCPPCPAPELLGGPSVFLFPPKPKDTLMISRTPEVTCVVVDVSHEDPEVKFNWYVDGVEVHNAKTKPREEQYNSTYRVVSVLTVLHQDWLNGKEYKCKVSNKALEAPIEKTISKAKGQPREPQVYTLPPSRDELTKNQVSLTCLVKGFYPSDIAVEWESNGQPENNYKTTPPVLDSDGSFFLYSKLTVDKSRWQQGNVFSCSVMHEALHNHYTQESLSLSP
light: DIVMTQSPLSLPVTPGEPASISCQASESLVHSNRNTYLHWYLQKPGQSPQLLIYKVSNRFSGVPDRFSGSGSGTDFTLKISRVEAEDVGVYYCSQNTHVPPTFGQGTKVEIE
notes: as for B4
Turning to B10, the “relative binding activity” value with human FcγRIa [3] was 33 % of control; in [4] it was -1 % of control; in [5], 0 % of control; in the assay with human FcγRIIb [6], -2 % of control; in assay [7], -1 % of control.

B11: GpH7-B3 variant I332R / GpL16-k0 (antibody, human IgG1)
heavy: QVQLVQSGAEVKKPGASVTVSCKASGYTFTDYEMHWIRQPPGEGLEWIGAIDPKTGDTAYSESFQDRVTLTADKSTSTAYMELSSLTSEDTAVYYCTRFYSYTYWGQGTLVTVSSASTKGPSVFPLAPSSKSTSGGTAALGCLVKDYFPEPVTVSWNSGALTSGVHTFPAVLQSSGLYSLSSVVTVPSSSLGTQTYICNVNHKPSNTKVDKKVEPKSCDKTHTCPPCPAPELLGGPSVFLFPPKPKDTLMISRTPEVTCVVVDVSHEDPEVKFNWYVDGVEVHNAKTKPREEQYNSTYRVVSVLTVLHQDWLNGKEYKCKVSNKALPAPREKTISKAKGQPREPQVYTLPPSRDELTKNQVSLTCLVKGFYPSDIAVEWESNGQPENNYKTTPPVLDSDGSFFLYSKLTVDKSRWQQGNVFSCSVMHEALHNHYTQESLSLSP
light: DIVMTQSPLSLPVTPGEPASISCQASESLVHSNRNTYLHWYLQKPGQSPQLLIYKVSNRFSGVPDRFSGSGSGTDFTLKISRVEAEDVGVYYCSQNTHVPPTFGQGTKVEIE
notes: as for B4
Regarding B11, the “relative binding activity” value was 95 % of control with human FcγRIa [3]; 28 % of control in [4]; 70 % of control in assay [5]; 23 % of control with human FcγRIIb [6]; 61 % of control in assay [7].

B12: GpH7-B3 variant A330P / GpL16-k0 (antibody, human IgG1)
heavy: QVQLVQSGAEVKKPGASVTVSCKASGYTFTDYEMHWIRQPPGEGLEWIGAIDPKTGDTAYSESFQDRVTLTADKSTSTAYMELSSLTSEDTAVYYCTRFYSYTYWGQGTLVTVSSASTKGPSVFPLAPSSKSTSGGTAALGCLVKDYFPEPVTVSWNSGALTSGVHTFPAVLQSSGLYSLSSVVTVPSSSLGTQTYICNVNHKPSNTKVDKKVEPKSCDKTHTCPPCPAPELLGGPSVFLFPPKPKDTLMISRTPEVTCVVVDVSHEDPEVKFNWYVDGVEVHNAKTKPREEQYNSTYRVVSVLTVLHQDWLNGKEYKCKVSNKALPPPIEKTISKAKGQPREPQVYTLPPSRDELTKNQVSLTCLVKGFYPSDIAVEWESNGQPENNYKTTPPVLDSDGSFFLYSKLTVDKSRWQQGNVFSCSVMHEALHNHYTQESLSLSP
light: DIVMTQSPLSLPVTPGEPASISCQASESLVHSNRNTYLHWYLQKPGQSPQLLIYKVSNRFSGVPDRFSGSGSGTDFTLKISRVEAEDVGVYYCSQNTHVPPTFGQGTKVEIE
notes: as for B4
As for B12, the “relative binding activity” value with human FcγRIa [3] is 87 % of control; in assay [4], 42 % of control; in [5] it was 25 % of control; in the assay with human FcγRIIb [6] it was 39 % of control; in assay [7] it was 56 % of control.

B13: GpH7-B3 variant P329D / GpL16-k0 (antibody, human IgG1)
heavy: not shown
light: DIVMTQSPLSLPVTPGEPASISCQASESLVHSNRNTYLHWYLQKPGQSPQLLIYKVSNRFSGVPDRFSGSGSGTDFTLKISRVEAEDVGVYYCSQNTHVPPTFGQGTKVEIE
notes: as for B4
For B13, the “relative binding activity” value with human FcγRIa [3] was 23 % of control; in [4] it was 1 % of control; in [5] it was -1 % of control; with human FcγRIIb [6] it was -2 % of control; in [7], -1 % of control.

These data come from patent publication US20230257470A1 (published 2023).
